We go through two substances from publication PMC8071527, “Substrate Specificity of Chimeric Enzymes Formed by Interchange of the Catalytic and Specificity Domains of the 5′-Nucleotidase UshA and the 3′-Nucleotidase CpdB” (Molecules, 2021).

Assay in all cases: phosphate release, colorimetric, saturation kinetics
Assay type in all cases: biochemical, Escherichia coli
Holding throughout (conditions): Mn2+; alkaline phosphatase as auxiliary enzyme

The test system of data set [1] is O=[N+]([O-])c1ccc(OP(=O)(O)Oc2ccc([N+](=O)[O-])cc2)cc1. The source says: (§1) phosphate release, colorimetric, saturation kinetics on CpdB_Ndom–UshA_Cdom
The subject of data set [2] is C[N+](C)(C)CCOP(=O)(O)OP(=O)([O-])OC[C@H]1O[C@@H](n2ccc(N)nc2=O)[C@H](O)[C@@H]1O.
From the text: as §1

In data set [3] the test system is Nc1ncnc2c1ncn2[C@@H]1O[C@H](CO)[C@H]2OP(=O)(O)O[C@H]21.
From the text: as §1

Data set [4] deals with O=c1ccn([C@@H]2O[C@H](CO[P@@](=O)(O)O[P@@](=O)(O)O[C@H]3O[C@H](CO)[C@@H](O)[C@H](O)[C@H]3O)[C@@H](O)[C@H]2O)c(=O)[nH]1.
From the text: as §1

The test system of data set [5] is O=[N+]([O-])c1ccc(OP(=O)(O)Oc2ccc([N+](=O)[O-])cc2)cc1. The source says:
(§2) phosphate release, colorimetric, saturation kinetics on UshA_Ndom–CpdB_Cdom
This is another data set of the same source.

The test system of data set [6] is C[N+](C)(C)CCOP(=O)(O)OP(=O)([O-])OC[C@H]1O[C@@H](n2ccc(N)nc2=O)[C@H](O)[C@@H]1O.
From the text: as §2
The source holds these as a separate data set.

In data set [7] the test system is Nc1ncnc2c1ncn2[C@@H]1O[C@H](CO)[C@H]2OP(=O)(O)O[C@H]21.
From the text: as §2
The source holds these as a separate data set.

Data set [8] concerns O=c1ccn([C@@H]2O[C@H](CO[P@@](=O)(O)O[P@@](=O)(O)O[C@H]3O[C@H](CO)[C@@H](O)[C@H](O)[C@H]3O)[C@@H](O)[C@H]2O)c(=O)[nH]1.
From the text: as §2
This is another data set of the same source.

By Km is commonly meant the concentration of substrate that gives half-maximal velocity. The kcat is the maximal rate divided by the concentration of active sites. By kcat/Km is commonly meant the second-order rate constant that governs catalysis at low substrate concentration.

Regarding CpdB_Ndom–UshA_Cdom (Escherichia coli), the Km amounted to 1400 ± 60 µM in data set [1], 3900 ± 600 µM in data set [2], 370 ± 40 µM in data set [3] and 5900 ± 1900 µM in data set [4]. Further, the kcat in data set [1] was 208 ± 77 s⁻¹; in data set [2], 11 ± 3 s⁻¹; in data set [3], 117 ± 24 s⁻¹; in data set [4], 0.2 ± 0.1 s⁻¹. Besides, the kcat/Km in data set [1] was 150000 ± 55000 M⁻¹ s⁻¹; in data set [2] it was 2700 ± 300 M⁻¹ s⁻¹; in data set [3], 320000 ± 80000 M⁻¹ s⁻¹; in data set [4], 40 ± 8 M⁻¹ s⁻¹.

Regarding UshA_Ndom–CpdB_Cdom (Escherichia coli), the Michaelis constant (Km) in data set [5] worked out at 670 ± 120 µM; in data set [6], 1400 ± 400 µM; in data set [7] it was 1100 ± 350 µM; in data set [8], 5000 ± 1700 µM. In addition, the kcat in data set [5] amounted to 45 ± 3 s⁻¹; in data set [6], 0.3 ± 0.01 s⁻¹; in data set [7] it was 3.6 ± 1 s⁻¹; in data set [8], 0.1 ± 0.01 s⁻¹. Besides, the catalytic efficiency (kcat/Km) came to 68000 ± 13000 M⁻¹ s⁻¹ in data set [5], 210 ± 60 M⁻¹ s⁻¹ in data set [6], 3400 ± 1300 M⁻¹ s⁻¹ in data set [7] and 20 ± 10 M⁻¹ s⁻¹ in data set [8].
